Test results as given in US20250313627A1 (FUSE BIOTHERAPEUTICS, published 2025).

Legend:
[1] = molecular target: T1, human ROR1 (Receptor Tyrosine Kinase-Like Orphan Receptor 1) on the cell surface (human, UniProt Q01973 30-937); assay: cell-based or functional assay
[2] = molecular target: T2, human CD3 on T cells (human, UniProt P07766 23-207; P09693 23-182; P04234 22-171; P20963 22-164); assay: flow cytometry on CD3+ Jurkat NFAT Lucia cells, secondary antibody to the IgG1 Fc
T2 construct: whole, on cells; also called human CD3 on Jurkat T cells; human CD3 on T cells isolated from human PBMC
T2 sequence (P07766 23-207, chain 1 of 4): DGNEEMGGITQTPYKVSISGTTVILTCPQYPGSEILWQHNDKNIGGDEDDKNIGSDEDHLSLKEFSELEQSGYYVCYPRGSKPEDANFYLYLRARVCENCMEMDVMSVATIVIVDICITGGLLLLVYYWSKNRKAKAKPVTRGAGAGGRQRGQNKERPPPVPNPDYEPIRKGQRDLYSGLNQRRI
T2 sequence (P09693 23-182, chain 2 of 4): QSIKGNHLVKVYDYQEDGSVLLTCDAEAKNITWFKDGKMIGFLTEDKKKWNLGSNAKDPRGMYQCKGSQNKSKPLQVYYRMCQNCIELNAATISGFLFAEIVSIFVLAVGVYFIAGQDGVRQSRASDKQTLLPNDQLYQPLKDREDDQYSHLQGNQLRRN
T2 sequence (P04234 22-171, chain 3 of 4): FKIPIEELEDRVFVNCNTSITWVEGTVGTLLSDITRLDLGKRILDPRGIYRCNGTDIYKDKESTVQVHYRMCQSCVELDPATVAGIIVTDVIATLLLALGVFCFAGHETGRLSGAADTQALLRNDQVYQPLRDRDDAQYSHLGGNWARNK
T2 sequence (P20963 22-164, chain 4 of 4): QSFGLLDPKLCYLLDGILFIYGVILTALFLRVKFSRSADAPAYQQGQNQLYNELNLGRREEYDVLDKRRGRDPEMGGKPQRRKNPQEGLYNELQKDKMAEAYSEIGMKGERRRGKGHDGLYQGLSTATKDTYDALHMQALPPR

[3] = molecular target: T1, human ROR1 (Receptor Tyrosine …); assay: flow cytometry on ROR1+ MDA-MB-231 cells, secondary antibody to the IgG1 Fc; table row 'Binding EC50 (nM)', the graph's axis reads 'Concentration (pM)'
[4] = molecular target: T1, human ROR1 (Receptor Tyrosine …); assay: flow cytometry, LS174T cells expressing human ROR1 (low density)
Procedure: (§1) As shown in the tables below, mouse B16-F10 melanoma (Tables 9A-9F) or LS174T human colorectal adenocarcinoma (Tables 9G-9H) cells genetically engineered to express human ROR1 at high and low densities, respectively, were stained for flow cytometric analysis with 100 nM of humanized variants of the ROR1 specific VHHs, 5A1 or 2A11 in either a VHH-Fc format or the Ac13 format shown in FIG. 1. Cells were analyzed on a flow cytometer after the primary test article was fluorescently tagged with a goat anti human IgG-Fc specific PE secondary antibody. The positive control used was PE conjugated anti-human ROR1 clone 2A2. Negative controls included a PE labeled mouse IgG Ab, the secondary antibody only, the combination of a Hen Egg Lysozyme (HEL) specific antibody plus goat anti human IgG-Fc specific PE and Fluorescence Minus One (FMO). Other controls included the non-humanized version of 5A1-Fc (FUSE179), 2A11-Fc (FUSE112) and 5A1-Ac13 (FUSE488). Humanized variants were generated using computational design (FUSE489, FUSE497-498, FUSE563, FUSE569-570, and BI-HU9-VHH11-33), a yeast display library in which mutations were inserted into the Vernier zone residues of human framework indicated in GenBank accession number M99660 (FUSE524-525, FUSE589, FUSE597-598, FUSE537, FUSE661-662, BI-HU9-HK and BI-HU9-HK-1), and a second yeast display library in which mutations were inserted into the Vernier zone residues of human framework indicated in GenBank accession number AWH66715 and amino acid position 103 within CDR3 (FUSE559, FUSE590-596, BI-HU9-VH9-1, FUSE654-655 and FUSE661-662. Affinity matured variants of FUSE559 were also generated using computational design (F22158101-21; Table 9H).

[5] = molecular target: T3, recombinant His tagged human ROR1 (human, UniProt Q01973 30-403, limits assumed); assay: BLI (Octet), VHH-Fc loaded on the biosensor, His tagged ROR1 in solution
T3 construct: Analyte in the BLI assay; also called Human ROR1-His; recombinant ROR1
T3 sequence (Q01973 30-403 limits assumed): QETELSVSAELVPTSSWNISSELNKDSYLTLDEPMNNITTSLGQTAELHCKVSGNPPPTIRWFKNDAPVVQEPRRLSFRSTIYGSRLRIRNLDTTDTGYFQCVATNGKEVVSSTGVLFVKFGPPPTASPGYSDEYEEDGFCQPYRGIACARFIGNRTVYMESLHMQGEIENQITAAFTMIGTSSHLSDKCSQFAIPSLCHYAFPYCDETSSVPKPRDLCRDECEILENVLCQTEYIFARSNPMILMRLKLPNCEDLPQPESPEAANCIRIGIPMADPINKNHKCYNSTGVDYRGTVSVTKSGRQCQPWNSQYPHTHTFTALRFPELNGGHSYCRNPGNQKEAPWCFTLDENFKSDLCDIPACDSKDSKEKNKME

[6] = molecular target: T3, recombinant His tagged human ROR1; assay: SPR (Biacore 8K), recombinant human ROR1 amine-coupled on a CM5 chip (4400 RU), analyte 200nM, 1:1 binding fit; column 'kd (1/s)' [table below it]
Procedure: (§2) Protein test article binding to recombinant human ROR1 (Acro Biosystems, RO1-H522y) was detected on a BIAcore 8K (Cytiva) biosensor system using an SPR assay. Briefly, a carboxymethylated CM5 sensor chip was activated with 1:1 mixture of 0.4 M N-ethyl-N-(3-dimethylaminopropyl) carbodiimide and 0.1 M′ N-hydroxysuccinimide. Recombinant human ROR1 in 10 mM NaOAc (pH5) was then immobilized on the sensor chip by amine-coupling according to the manufacturer's instructions to yield the stable RU of 4400. Unreacted sites were blocked with 1M ethanolamine/HCl (pH 8). Control flow cells (blank) were activated and blocked in the absence of ROR1. Flow cells were routinely equilibrated with running buffer (PBS, 0.005% surfactant P20). Test article proteins used for assessment of binding to recombinant human ROR1 binding were diluted in HBS-EP running buffer and injected into the sensor chip at different concentrations. […] Data from duplicate assays were modeled for binding equilibrium and dot plots for 200 nM of protein test article was calculated. Association constant (ka), dissociation constant (kd) and binding affinity (KD=kd/ka) were generated from integrated software in the BIAcore 8K system.
(§3) Shown are sensorgrams of surface plasmon resonance (SPR) data generated via Biacore analysis. A summary table of binding affinity (KD), on rate (k-a) and off rate (kd) is shown below FIG. 16B.

[7] = molecular target: T1, human ROR1 (Receptor Tyrosine …); assay: flow cytometry, B16-F10 cells expressing human ROR1 (high density)
Procedure: as §1

[8] = molecular target: T1, human ROR1 (Receptor Tyrosine …); assay: flow cytometry, LS174T cells expressing human ROR1 (low density); remark: listed apart in the source
Procedure: as §1

[9] = molecular target: T1, human ROR1 (Receptor Tyrosine …); assay: flow cytometry, B16-F10 cells expressing human ROR1 (high density); remark: listed apart in the source
Procedure: as §1

[10] = molecular target: T3, recombinant His tagged human ROR1; assay: SPR (Biacore 8K), recombinant human ROR1 amine-coupled on a CM5 chip (4400 RU), analyte 200nM, 1:1 binding fit; column '1:1 binding ka (1/Ms)' [table below it]
Procedure: as §2, §3

[11] = molecular target: T1, human ROR1 (Receptor Tyrosine …); assay: flow cytometry, B16-F10 cells expressing human ROR1 (high density); remark: listed apart in the source
Procedure: as §1

[12] = molecular target: T1, human ROR1 (Receptor Tyrosine …); assay: as above; remark: listed apart in the source
Procedure: as §1

[13] = molecular target: T3, recombinant His tagged human ROR1; assay: BLI (Octet), FUSE protein on the tip, His tagged ROR1 in solution; 5A1 parental VHH-Fc
Procedure: (§4) As shown in FIGS. 5A-5D, the binding affinities (KD) of TCEs for ROR1 were assessed. We examined the magnitude by which several TCEs and mutants thereof bind to recombinant ROR1. Kinetic binding graphs were generated via Bio-Layer Interferometry (BLI) using an Octet system. For each TCE, the biosensor tips were coated with FUSE proteins at 15 μg/ml and probed with either recombinant His tagged ROR1 at concentrations ranging from 100 pM to 10 μM. […] The binding affinity (KD), on rate (k-on) and off rate (k-dis), are summarized for ROR1 in FIG. 5D.
(§5) We further examined the impact of mutating the cysteine residues located in CDR1 and CDR3 of 2A11 VHH and 5A1 VHH.

[14] = molecular target: T1, human ROR1 (Receptor Tyrosine …); assay: flow cytometry on B16-F10 cells engineered to express human ROR1, secondary antibody to the IgG1 Fc
Procedure: As shown in FIG. 15 the apparent binding affinity (EC50-binding) of the ROR1 specific VHH-Fc incorporating either the non humanized VHH clone 5A1 (FUSE179; black circle), the humanized clone 5A1-FA9-HK1 (FUSE559; black square) or the humanized clone 5A1-HK1 (FUSE524; black triangle) was calculated. Shown is a non-linear x-y plot of binding to B16-F10 cell engineered to express human ROR1 relative to the concentration of test article used for staining. A Hen Egg Lysozyme (HEL)-specific antibody was used as the negative isotype control. Binding was measured via flow cytometry using a fluorescently labeled secondary antibody specific for the Fc domain of IgG1. A summary table of EC50s and maximum MFI is shown beneath under the graph.

[15] = molecular target: T1, human ROR1 (Receptor Tyrosine …); assay: flow cytometry, B16-F10 cells expressing human ROR1 (high density); remark: listed apart in the source
Procedure: as §1

[16] = molecular target: T3, recombinant His tagged human ROR1; assay: SPR (Biacore 8K), recombinant human ROR1 amine-coupled on a CM5 chip (4400 RU), analyte 200nM, 1:1 binding fit [table below it]
Procedure: as §2, §3

[17] = molecular target: T3, recombinant His tagged human ROR1; assay: BLI (Octet), VHH-Fc loaded on the biosensor, His tagged ROR1 in solution; column 'kdis(1/s)'
[18] = molecular target: T3, recombinant His tagged human ROR1; assay: BLI (Octet), FUSE protein on the tip, His tagged ROR1 in solution; 2A11 parental VHH-Fc
Procedure: as §4, §5

[19] = molecular target: T3, recombinant His tagged human ROR1; assay: BLI (Octet), VHH-Fc loaded on the biosensor, His tagged ROR1 in solution; remark: listed apart in the source
[20] = molecular target: T3, recombinant His tagged human ROR1; assay: BLI (Octet), VHH-Fc loaded on the biosensor, His tagged ROR1 in solution; column 'kdis(1/s)'; remark: listed apart in the source

T1 sequence (Q01973 30-937): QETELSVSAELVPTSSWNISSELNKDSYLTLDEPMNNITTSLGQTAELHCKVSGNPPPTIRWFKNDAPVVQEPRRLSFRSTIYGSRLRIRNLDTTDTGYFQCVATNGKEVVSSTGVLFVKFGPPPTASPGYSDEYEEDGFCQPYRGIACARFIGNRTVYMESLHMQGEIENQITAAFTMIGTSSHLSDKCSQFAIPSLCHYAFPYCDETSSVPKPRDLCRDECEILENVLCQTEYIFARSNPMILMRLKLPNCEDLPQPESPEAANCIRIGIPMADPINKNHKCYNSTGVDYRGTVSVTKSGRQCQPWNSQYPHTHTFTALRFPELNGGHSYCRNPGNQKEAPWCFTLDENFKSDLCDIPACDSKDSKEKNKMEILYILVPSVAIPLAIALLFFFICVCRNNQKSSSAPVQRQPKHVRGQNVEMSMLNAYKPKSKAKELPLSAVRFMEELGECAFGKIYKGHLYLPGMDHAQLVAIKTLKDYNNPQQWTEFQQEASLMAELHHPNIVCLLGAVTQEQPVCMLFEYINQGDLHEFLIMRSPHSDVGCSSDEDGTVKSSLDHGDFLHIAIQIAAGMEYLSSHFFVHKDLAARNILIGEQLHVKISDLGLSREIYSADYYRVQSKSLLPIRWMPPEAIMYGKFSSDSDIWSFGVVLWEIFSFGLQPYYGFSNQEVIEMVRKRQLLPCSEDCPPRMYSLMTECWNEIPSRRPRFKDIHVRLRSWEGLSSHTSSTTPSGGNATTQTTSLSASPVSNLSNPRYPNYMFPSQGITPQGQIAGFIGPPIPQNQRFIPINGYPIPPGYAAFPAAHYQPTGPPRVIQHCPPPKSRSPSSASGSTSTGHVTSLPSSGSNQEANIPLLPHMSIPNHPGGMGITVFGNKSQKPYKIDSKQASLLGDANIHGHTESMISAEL

B1: FUSE608 (humanized CD3 clone 1F3.3 x humanized clone 5A1-FA9-HK1) (bispecific antibody)
heavy: EVQLVESGGGLVQPGGSLRLSCAASGFTFSTYAMNWVRQAPGKGLEWVARIRSKYNNYATYYADSVKDRFTISRDDSKNTLYLQMNSLRAEDTAVYYCARHGNFGNSYVSWFAYWGQGTMVTVSSASTKGPSVFPLAPSSKSTSGGTAALGCLVKDYFPEPVTVSWNSGALTSGVHTFPAVLQSSGLYSLSSVVTVPSSSLGTQTYICNVNHKPSNTKVDKKVEPKSCDKTHTCPPCPAPEAAGGPSVFLFPPKPKDTLMISRTPEVTCVVVDVSHEDPEVKFNWYVDGVEVHNAKTKPREEQYNSTYRVVSVLTVLHQDWLNGKEYKCKVSNKALPAPIEKTISKAKGQPREPQVYTLPPSREEMTKNQVSLSCAVKGFYPSDIAVEWESNGQPENNYKTTPPVLDSDGSFFLVSKLTVDKSRWQQGNVFSCSVMHEALHNRFTQKSLSLSPGK
VHH-Fc: EVQLLESGGGLVQPGGSLRLSCTASGYTNRLKCMGWFRQAPGKEREEIASISTGTGNTYYADSVKGRFTISRDKSRNTLYLQMNTLRAEDTAVYYCAADVRPHGTTCHYNSRGQGTQVTVSSEPKSSDKTHTCPPCPAPEAAGGPSVFLFPPKPKDTLMISRTPEVTCVVVDVSHEDPEVKFNWYVDGVEVHNAKTKPREEQYNSTYRVVSVLTVLHQDWLNGKEYKCKVSNKALPAPIEKTISKAKGQPREPQVYTLPPSREEMTKNQVSLWCLVKGFYPSDIAVEWESNGQPENNYKTTPPVLDSDGSFFLYSKLTVDKSRWQQGNVFSCSVMHEALHNHYTQKSLSLSPGK
light: QAVVTQEPSLTVSPGGTVTLTCRSSTGAVTTSNYANWVQQKPGQAPRGLIGGTNKRAPGTPARFSGSLLGGKAALTLSGVQPEDEAEYYCALWYSNLWVFGGGTKLTVLGQPKAAPSVTLFPPSSEELQANKATLVCLISDFYPGAVTVAWKADSSPVKAGVETTTPSKQSNNKYAASSYLSLTPEQWKSHRSYSCQVTHEGSTVEKTVAPTECSGGGGSGGGGSGGGGSGGGGSEVQLLESGGGLVQPGGSLRLSCTASGYTNRLKCMGWFRQAPGKEREEIASISTGTGNTYYADSVKGRFTISRDKSRNTLYLQMNTLRAEDTAVYYCAADVRPHGTTCHYNSRGQGTQVTVSS
fold decrease in T cell mediated IFNγ release with ROR1+ MDA-MB-231, potency against FUSE399 [1]: ~25 fold | EC50 [2]: 8.18 nM | EC50 [3]: 2.9 nM

B2: FUSE-179 (5A1 VHH-human-Fc fusion protein) (Fc fusion)
chain: QVQLQESGGGSVQAGGSLKLSCTASGYTNRLKCMGWFRQAPGKEREEIATISTGTGNTYYADSVKGRFTFSQDKVKNTVYLQMNTLKPDDTGMYYCAADVRPDGTTCHYNSGGQGTQVTVSS
notes: VHH-human-Fc fusion; non-humanized 5A1; not shown: human Fc
MFI [4]: 836 | Kd [5]: 36 nM | kon [5]: 48200 M⁻¹ s⁻¹ | koff [6]: 0.00106 s⁻¹ | MFI [7]: 4480 | MFI [8]: 3060 | MFI [9]: 93800 | kon [10]: 144000 M⁻¹ s⁻¹ | MFI [11]: 8480 | MFI [12]: 4220 | Kd [13]: ~4 nM | EC50 [14]: 2.04 nM | Max MFI [14]: 4900 MFI | MFI [15]: 3730 | Kd [16]: 7.38 nM | koff [17]: 0.00174 s⁻¹

B3: FUSE-112 (2A11 VHH-human-Fc fusion protein) (Fc fusion)
chain: QVQLQESGGGSVPAGGSLRLSCAASGSTYSANCMGWFRQAPGKEREEVASMSIRSGRTYYSDSVKGRFTISQDGSKNTLYLQLNSLKAEDTALYYCAAAYGGSRCVYNYRGQGTQVTVSS
notes: VHH-human-Fc fusion; non-humanized 2A11; also called 2A11-Fc; not shown: human Fc
MFI [4]: 4340 | MFI [7]: 7840 | Kd [18]: ~4 nM | MFI [9]: 208000 | MFI [11]: 11900 | Kd [19]: 42.4 nM | kon [19]: 43100 M⁻¹ s⁻¹ | koff [20]: 0.00183 s⁻¹
